Broadly, the Kd is the equilibrium constant for the complex coming apart. Lower therefore signals a tighter complex. A word on the koff: it is the rate constant with which the complex falls apart. In general, kon refers to the rate constant with which the complex forms. What is called IC50 is the concentration at which inhibition is half-maximal. A lower IC50 goes with greater potency in that assay.

For assay [1], the target named is SARS-CoV 스파이크 [change] (#40150-V08B1, Sino Biological) (SARS-CoV, UniProt P59594 14-667). The experiment in a line: ELISA, coated S1-His. (In general: In an ELISA, binding on a coated surface is turned into a signal by an enzyme label.)
Assay [2] has as its target SARS-CoV-2 RBD-hFc (SARS-CoV-2, UniProt P0DTC2 319-541). The experiment in a line: cell-based or functional assay.
In assay [3] the target is SARS-CoV-2 spike protein on live SARS-CoV-2 virus (SARS-CoV-2, UniProt P0DTC2 14-1273). Put plainly: cell-based or functional assay.
Assay [4] has as its target SARS-CoV RBD-His (#40150-V08B2, Sino Biological) (SARS-CoV, UniProt P59594 306-527). The experiment in a line: ELISA, coated His-tagged antigen.
For assay [5], the target named is T1, SARS-CoV-2 RBD-mFc (SARS-CoV-2, UniProt P0DTC2 319-541).
T1 construct: range 319-541
The experiment in a line: Octet QKe BLI, 1:1 global fit. For orientation: BLI is a label-free optical method that tracks binding on a fibre tip over time.

Assay [6] concerns the target T2, SARS-CoV-2 스파이크 S1-mFc (SARS-CoV-2, UniProt P0DTC2 16-685).
T2 construct: range 16-685
The experiment in a line: competition ELISA: S1-mFc on coated ACE2-His.

For assay [7], the target named is T1, SARS-CoV-2 RBD-mFc. Put plainly: competition ELISA: RBD-mFc on coated ACE2-His.
Assay [8] deals with T1, SARS-CoV-2 RBD-mFc. Put plainly: flow cytometry competition: RBD-mFc on HEK293E/ACE2 cells. In general terms: A flow cytometer gives signals particle by particle.

B1: SA4053 (antibody, V domains shown)
VH: EVQLVQSGGGLVQPGGSLRLSCADSGFTFSSYWMSWVRQVPGKGLEWVANIKQDGSEKYYVDSVKGRFTISRDNAKNSLYLQMNSLRAEDTAVYYCARDVGRGYCSSTSCYRFGGREDFFDYWGQGTLVTVSS
VL: QLVLTQPPSVSAAPGQRVTISCSGSFSNVGNNFVSWYRHLPGTAPELLIYDNNQRPSGIPDRFSASKSGTSATLAITGLHTGDEADYYCGTWDTSLSGVVFGGGTKLTVL
As for B1, the binding result in assay [1] is “no binding (tested: 50 nM)”; in assay [4] it was “no binding”. Besides, in assay [2], the “IC50, 세포내 유입(internalization) 억제, HEK293E/ACE2-GFP” value (“IC50 … HEK293E/ACE2-GFP” below) stood at 62.7 nM. The “IC50, live SARS-CoV-2 미세중화분석, Vero 세포” value in assay [3] was 346 nM. In assay [5], the affinity, expressed as Kd, was 0.689 nM. Besides, in assay [5], the koff was found to be 0.000218 s⁻¹. For the same molecule, the kon in assay [5] turned out to be 316000 M⁻¹ s⁻¹. The IC50 in assay [6] is 22 nM; in assay [7], 40.6 nM; in assay [8], 2.21 nM.

B2: SA3856 (antibody, V domains shown)
VH: QMQLVESGGGLIQPGGSLRLSCAASGFTVTSAYMSWVRQAPGKGLEWVSIIYGGGSTYYADSVKGRFTISRDNSKNTLYLQMNSLRAEDTAVYYCTGPYPGRYDYWGRGTLVTVSS
VL: DIQMTQSPSSLSASVGDRVIITCRASQDIRTSLAWFQQRLGEAPRSLIYDASSLQNGVPSKFRGSGSGTDFTLTISSLQPEDFATYYCQQYKTVPLTFGGGTKVEIK
Consider B2, for which the binding result is recorded as “no binding (tested: 50 nM)” in assay [1] and “no binding” in assay [4]. Also, the “IC50 … HEK293E/ACE2-GFP” value in assay [2] was 11.9 nM. Also, the “IC50, live SARS-CoV-2 미세중화분석, Vero 세포” value in assay [3] stood at 137 nM. This molecule showed an equilibrium dissociation constant (Kd) in assay [5] of 0.0888 nM. This molecule also showed a koff in assay [5] of 4.3e-05 s⁻¹. In assay [5], the kon is 484000 M⁻¹ s⁻¹. Besides, the half-maximal inhibitory concentration (IC50) worked out at 2.11 nM in assay [6], 25.1 nM in assay [7] and 2.67 nM in assay [8].

B3: SA4044 (antibody, V domains shown)
VH: EVQLVQSGGGLIQPGGSLRLSCAASGFTVSSNYMSWVRQAPGKGLEWVSVIYSGGSTYYADSVKGRFTISRDNSKNTLHLQMNSLRAEDTAVYYCARDLPQFDGFDYWGQGTLVTVSS
VL: QSALTQPPSLSVAPGRTARITCGGNNIGSKSVNWYQHMPGQAPVLVIYSDTDRPSGIPERVSGSKSGNTATLSISRVEAGDEADYYCQVWDSTTDHVVFGGGTKLTVL
With B3, the binding result is listed as “no binding (tested: 50 nM)” in assay [1] and “no binding” in assay [4]. Besides, the “IC50 … HEK293E/ACE2-GFP” value in assay [2] was found to be 39.2 nM. In addition, the “IC50, live SARS-CoV-2 미세중화분석, Vero 세포” value in assay [3] was found to be 80.5 nM. The IC50 in assay [6] was 13.6 nM; in assay [7], 58.3 nM; in assay [8] it was 2.21 nM.

B4: SA4050 (antibody, V domains shown)
VH: QVQLVESGAEVKKPGASVKVSCKASGYTFTGYFIHWVRQAPGQGLEWMGWINPNSGGTNYAQKFQGRVTMTRDTSISTAYMELSRLRSDDTAVYYCARVPHLSGYYYEGVLGYFDYWGQGTLVTVSS
VL: QSALTQPASVSGSPGQSITISCTGTSIDIGSYNFVSWYQRHPGKAPRLLIYDVSDRPSGVSNRFSGSKSANTASLTISGLQAEDEADYYCSSYTSSSLWVFGGGTKLTVL
On to B4, for which the binding result in assay [1] was “no binding (tested: 50 nM)”; in assay [4], “no binding”. The “IC50 … HEK293E/ACE2-GFP” value in assay [2] turned out to be 36.9 nM. Further, in assay [3], the “IC50, live SARS-CoV-2 미세중화분석, Vero 세포” value was 0.71 nM. For the same molecule, the equilibrium dissociation constant (Kd) in assay [5] is 0.0929 nM. In assay [5], this molecule yielded an off-rate constant (koff) of 4.67e-05 s⁻¹. Besides, the kon in assay [5] was 503000 M⁻¹ s⁻¹. Moreover, the IC50 in assay [6] came out at 1.45 nM; in assay [7] it was 3.14 nM; in assay [8] it was 2.93 nM.

B5: SA3830 (antibody, V domains shown)
VH: QVQLVESGGGLIQPGRSLSLSCAASGFNFDEYSMHWVRQRPGKGLEWVSGIKYNSNTILYADSVKGRFTVSRDNSKNSLYLQMNSLRAEDTAVYYCARDAMRGGDFDHWGQGTLITVSS
VL: DIQMTQSPSYLSASAGDRVTITCRASQSISDWLAWYQHKPGKAPKLLIYKASRLENGVPSRFRGSGSATDFTLTISSLQAEDVAVYYCQQYYSTTWTFGQGTKVDIK
With B5, the binding result in assay [1] is “no binding (tested: 50 nM)”; in assay [4], “no binding”. Besides, in assay [2], the “IC50 … HEK293E/ACE2-GFP” value came out at 13.5 nM. For the same molecule, the “IC50, live SARS-CoV-2 미세중화분석, Vero 세포” value in assay [3] was 231 nM. In assay [5], this molecule returned a Kd of 0.782 nM. Further, in assay [5], the koff was 0.000702 s⁻¹. In assay [5], this molecule came in with an on-rate constant (kon) of 897000 M⁻¹ s⁻¹. The IC50 in assay [6] amounted to 1.86 nM; in assay [7] it was 10.2 nM; in assay [8] it was 2.57 nM.

B6: SA4056 (antibody, V domains shown)
VH: QVQLQESGGGLVQPGGSLRLSCAASVITVSSNYMSWVRQAPGKGLEWVSVIYPGGSTYYADSVKGRFTISRDKSKNTLYLQMNSLRAEDTAVYYCARDLDIVGGMDVWGQGTTVTVSS
VL: DIQMTQSPSTLSASVGDRVTITCRASQSISRWLAWYQQKPGQAPKLLIYAASTLQSGVPSRFSGSGSGTEFTLTISSLQPDDFATYYCQQYDSYPRTFGQGTKVDIK
As to B6, the binding result in assay [1] was “no binding (tested: 50 nM)”; in assay [4], “no binding”. Also, the “IC50 … HEK293E/ACE2-GFP” value in assay [2] was 28.1 nM. Moreover, the “IC50, live SARS-CoV-2 미세중화분석, Vero 세포” value in assay [3] was found to be 11.3 nM. In assay [5], this molecule displayed a Kd of 0.0907 nM. In assay [5], this molecule displayed a koff of 4.32e-05 s⁻¹. The kon in assay [5] was 477000 M⁻¹ s⁻¹. The IC50 in assay [6] came out at 1.4 nM; in assay [7], 1.86 nM; in assay [8], 2.19 nM.

B7: SA4057 (antibody, V domains shown)
VH: EVQLVQSGGGLVQPGGSLRLSCAASVITVSSNYMSWVRQAPGKGLEWVSVIYPGGSTYYADSVKGRFTISRDKSKNTLYLQMNSLRAEDTAVYYCARDLDIVGGMDVWGQGTTVTVSS
VL: QLVLTQPPSVSGAPGQRVTISCTGSSSNIGAPHDVHWYQQLPGTAPRLLIYANNNRPSGVPDRFSGSKSGTSASLAITGLQDEDEADYYCQSYDSSLRAYVFGTGTKVTVL
As for B7, the binding result in assay [1] is on record as “no binding (tested: 50 nM)”; in assay [4], “no binding”. For the same molecule, the “IC50 … HEK293E/ACE2-GFP” value in assay [2] came to 28.1 nM. The “IC50, live SARS-CoV-2 미세중화분석, Vero 세포” value in assay [3] was determined as 37.5 nM. In assay [5], the equilibrium dissociation constant (Kd) was determined as 0.0284 nM. The molecule further came in with a koff in assay [5] of 4.96e-06 s⁻¹. This molecule registered a kon in assay [5] of 175000 M⁻¹ s⁻¹. The results for the IC50 in assay [7] and in assay [8] were 4.81 nM and 4.13 nM, respectively.

B8: SA4043 (antibody, V domains shown)
VH: QVQLQESGGGLVQPGGSLRLSCAASVITVSSNYMSWVRQAPGKGLEWVSVIYPGGSTYYADSVKGRFTISRDKSKNTLYLQMNSLRAEDTAVYYCARDLDIVGGMDVWGQGTTVTVSS
VL: DIQMTQSPSTLSASVGDRVTITCRASQSISRWLAWYQQKPGQAPKLLIYAASTLQSGVPSRFSGSGSGTEFTLTISSLQPDDFATYYCQQYDSYPRTFGQGTKVDIK
Take B8: the binding result is “no binding (tested: 50 nM)” in assay [1] and “no binding” in assay [4]. The “IC50 … HEK293E/ACE2-GFP” value in assay [2] is 12.8 nM. The “IC50, live SARS-CoV-2 미세중화분석, Vero 세포” value in assay [3] turned out to be 12.5 nM. The IC50 was found to be 1.43 nM in assay [6], 1.76 nM in assay [7] and 1.69 nM in assay [8].

Source of the values: patent KR20220054080A (dated 2022).
